Source: PMC4432624, “Prdx4 is a compartment-specific H2O2 sensor that regulates neurogenesis by controlling surface expression of GDE2” (Nature Communications, 2015)

Molecular target: the molecule itself
Experiment: western blot of Prdx4 dimers and monomers; primary motor neuron cultures treated with H2O2, Tempol or Edaravone; cells lysed with 100 mM maleimide; anti-mPrdx4 blot

B1: mouse Prdx4, endogenous in primary motor neuron cultures (enzyme, UniProt O08807 41-274, looked up)
chain: LESDERFRTRENECHFYAGGQVYPGEASRVSVADHSLHLSKAKISKPAPYWEGTAVINGEFKELKLTDYRGKYLVFFFYPLDFTFVCPTEIIAFGDRIEEFKSINTEVVACSVDSQFTHLAWINTPRRQGGLGPIRIPLLSDLNHQISKDYGVYLEDSGHTLRGLFIIDDKGVLRQITLNDLPVGRSVDETLRLVQAFQYTDKHGEVCPAGWKPGSETIIPDPAGKLKYFDKLN
notes: Peroxiredoxin 4 (Prdx4), mouse, endogenous; also called mPrdx4; source: endogenous, primary motor neuron cultures from E11.5 mouse spinal cords
stoichiometry N: 2
